The results in this text go back to IntAct's records for PubMed 18022368.

The labels stand for the following.
B1: MAD2L1-binding protein (Homo sapiens), Q15013 (parent)
chain: MAAPEAEVLSSAAVPDLEWYEKSEETHASQIELLETSSTQEPLNASEAFCPRDCMVPVVFPGPVSQEGCCQFTCELLKHIMYQRQQLPLPYEQLKHFYRKPSPQAEEMLKKKPRATTEVSSRKCQQALAELESVLSHLEDFFARTLVPRVLILLGGNALSPKEFYELDLSLLAPYSVDQSLSTAACLRRLFRAIFMADAFSELQAPPLMGTVVMAQGHRNCGEDWFRPKLNYRVPSRGHKLTVTLSCGRPSIRTTAWEDYIWFQAPVTFKGFRE

In this experiment the parent is B1. The following applies: with md2l1_human MAD2L1, Q13257.
Sequence of md2l1_human MAD2L1, Q13257 (Q13257 whole entry): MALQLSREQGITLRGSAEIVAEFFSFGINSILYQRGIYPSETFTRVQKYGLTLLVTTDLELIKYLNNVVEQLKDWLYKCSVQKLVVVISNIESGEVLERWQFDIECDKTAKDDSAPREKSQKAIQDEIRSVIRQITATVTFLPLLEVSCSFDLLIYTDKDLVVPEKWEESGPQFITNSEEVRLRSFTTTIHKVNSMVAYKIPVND
For F191A, the “effect of a mutation on the interaction” value is given as “decreasing interaction”.
Q83A: the “effect of a mutation on the interaction” value is “decreasing interaction”.
Take Q83A;F191A: the “effect of a mutation on the interaction” value is recorded as “decreasing interaction”.
